This note sets out measurements from US5985836A, “Alpha-1 proteinase inhibitor binding peptides” (Bayer Corporation, priority 1998, dated 1999).

Assay [1] concerns the target T1, A1PI (Homo sapiens, UniProt P01009).
T1 construct: Human plasma is currently the only approved source of therapeutic AlPI
Nature of the assay: A1PI binding on peptide-resin column, injection of 1 mg A1PI in equilibration buffer. The conditions noted are these: for % of Total A1PI Eluted by Fraction (Based on Absorbance at 280 nm), 1M NaCl / % of Total A1PI Eluted by Fraction (Based on Absorbance at 280 nm), 2% Acetic Acid / % of Total A1PI Eluted by Fraction (Based on Absorbance at 280 nm), Flowthrough: 1 mg A1PI. In a few lines:
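Peptides synthesized on A-Totda-Toyopearl chelate resin (0.1 mmole/g) packed in 0.4×5 cm columns; 1 mg A1PI injected in equilibration buffer at 4 °C or 20 °C, 865 or 523 μl/min. Flowthrough, 1M/3M NaCl washes and 2% acetic acid eluate quantified by A280 or immunonephelometry as percent of total eluted.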

Assay [2] has as its target T2, apolipoprotein alpha-1 (Apo A-1) (Homo sapiens, UniProt P02647).
T2 construct: Eff; II+III is a process intermediate in the Cohn plasma fractionation process; tissue Bayer Corporation (Clayton, N.C.); host or cells: plasma fraction: Cohn Effluent II+III
Kind of assay: Purification from Effluent II+III, Apo A-1 mass balance. Format: binding. The conditions noted are these: 1 ml Eff. II+III, 4° C. In a few lines: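 Mass balance per protein was determined over the load and each step eluate (1M NaCl, 3M NaCl, 2% acetic acid) of peptide columns challenged with 1 ml Effluent II+III. The feed contained 20% ethanol and 20-25 mg/ml hSA, the flow was 865 μl/min after a 10 min residence, and the temperature was 4° C.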

Setting [3] is: 1 mg A1PI in equilibration buffer, 4° C.
The mark [4] stands for this setting: 1 mg A1PI in equilibration buffer, 20° C.
[5] abbreviates: VIWLVR N-terminal point mutations, 4° C.
The mark [6] stands for this setting: * as in Tables 4, 5 (below detection limit).

Ends that are not written are not given here.

T2 sequence (P02647 19-267): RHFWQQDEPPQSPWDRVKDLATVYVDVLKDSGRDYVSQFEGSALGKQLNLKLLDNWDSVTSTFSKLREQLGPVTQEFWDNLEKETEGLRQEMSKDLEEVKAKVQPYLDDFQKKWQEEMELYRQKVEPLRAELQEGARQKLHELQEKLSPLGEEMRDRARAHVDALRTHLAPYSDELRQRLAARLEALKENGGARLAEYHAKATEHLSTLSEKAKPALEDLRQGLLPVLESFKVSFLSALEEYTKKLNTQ
T1 sequence (P01009 25-418): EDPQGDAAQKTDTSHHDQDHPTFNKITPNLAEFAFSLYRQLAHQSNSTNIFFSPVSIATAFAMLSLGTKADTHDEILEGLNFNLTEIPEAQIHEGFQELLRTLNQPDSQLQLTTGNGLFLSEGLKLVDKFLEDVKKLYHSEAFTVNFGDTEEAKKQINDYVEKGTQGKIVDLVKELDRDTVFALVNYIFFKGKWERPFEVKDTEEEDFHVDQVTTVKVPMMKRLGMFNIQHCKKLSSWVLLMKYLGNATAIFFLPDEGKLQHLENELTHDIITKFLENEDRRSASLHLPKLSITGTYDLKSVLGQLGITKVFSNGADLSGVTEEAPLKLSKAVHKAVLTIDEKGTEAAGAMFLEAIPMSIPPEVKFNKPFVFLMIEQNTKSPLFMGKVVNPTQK

For VIWLVR, in assay [1] (setting [3]), the “Percent A1PI Eluted by Fraction Based on Absorbance at 280 nm, 1M NaCl” value is given as 25%; the “Percent A1PI Eluted by Fraction Based on Absorbance at 280 nm, 2% Acetic Acid” value was determined as 30%; the “Percent A1PI Eluted by Fraction Based on Absorbance at 280 nm, Flowthrough” value is recorded as 45%. In addition, in assay [1] (setting [4]), the “Percent A1PI Eluted by Fraction, 1M NaCl” value turned out to be 26%; the “Percent A1PI Eluted by Fraction, 2% Acetic Acid” value worked out at 66%; the “Percent A1PI Eluted by Fraction, Flowthrough” value stood at 8%. Moreover, in assay [1] (Trp position mutations, 4° C.), the “% of Total A1PI Eluted by Fraction (Based on Absorbance at 280 nm), 1M NaCl” value (shortened to “% of Total A1PI Eluted by Fraction … 1M NaCl”) came out at 25%; the “% of Total A1PI Eluted by Fraction (Based on Absorbance at 280 nm), 2% Acetic Acid” value turned out to be 30%; the “% of Total A1PI Eluted by Fraction (Based on Absorbance at 280 nm), Flowthrough” value (“% of Total A1PI Eluted by Fraction … Flowthrough” below) stood at 45%. For the same substance, in assay [1] (Trp position mutations, 20° C.), the “% of Total A1PI Eluted by Fraction … 1M NaCl” value worked out at 26%; the “% of Total A1PI Eluted by Fraction (Based on Absorbance at 280 nm), 2% Acetic Acid” value is reported as 66%; the “% of Total A1PI Eluted by Fraction … Flowthrough” value is reported as 8%. Moreover, in assay [1] (setting [5]), the “% of Total A1PI Eluted by Fraction … 1M NaCl” value stood at 25%; the “% of Total A1PI Eluted by Fraction (Based on Absorbance at 280 nm), 2% Acetic Acid” value is reported as 30%; the “% of Total A1PI Eluted by Fraction … Flowthrough” value turned out to be 45%. For the same substance, in assay [2], the “Percent Eluted by Fraction, 1M NaCl” value is on record as 0%; the “Percent Eluted by Fraction, 2% Acetic Acid” value amounted to 48%; the “Percent Eluted by Fraction, 3M NaCl” value was found to be 0%; the “Percent Eluted by Fraction, Flow” value was 52%. Besides, in assay [2] (setting [6]), the “Mass Protein per Eluate Fraction, 2% Acetic Acid” value was 0.29 mg and the “Mass Protein per Eluate Fraction, Flow” value stood at 0.32 mg.
